Test results from US20230391865A1 (University of California, published 2023).

B1: Anti-TSPAN3 M3 clone monoclonal antibody (antibody, V domains shown)
VH: QIQLVQSGPELKKPGETVKISCKASGYTFTTYGMSWVKQAPGKGLKWMGWINTYSGVPTYADDFKGRFAFSLETSASTAYLQINNLKNEDTATYFCARSHYSNFYAMDYWGQEPQSP
VL: DIVMTQSHKFMSTSVGDRVSITCKASQDVGTAVAWYQQKPGQSPKLLIYWASTRHTGVPDRFTGSGSGTDFTLTISNVQSEDLADYFCQQYSSYPLTFGAGTKLELK
notes: Mouse hybridoma clone; isotype IgM, kappa; also called Clone 3 (TSPAN3-C - M3)
B2: Anti-TSPAN3 M5 clone monoclonal antibody (antibody, IgG2b, V domains shown)
VH: EVQLQQSGPELVKPGASVKMSCKASGYTFTDFYMHWVKQSHGRSLEWIGYIYPHNGFTKYNQSFMGKATLTVNKSSNTAYMELRSLTSEDSAVYYCARRYGDYWGQGISVTVSS
VL: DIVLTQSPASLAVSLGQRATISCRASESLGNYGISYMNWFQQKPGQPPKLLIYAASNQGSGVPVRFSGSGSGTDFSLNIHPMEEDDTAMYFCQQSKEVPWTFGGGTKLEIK
notes: Mouse hybridoma clone; isotype IgG2b, kappa; also called Clone 5 (TSPAN3-C - M5)
B3: Anti-TSPAN3 M6 clone monoclonal antibody (antibody, IgG2b, V domains shown)
VH: B2 VH
VL: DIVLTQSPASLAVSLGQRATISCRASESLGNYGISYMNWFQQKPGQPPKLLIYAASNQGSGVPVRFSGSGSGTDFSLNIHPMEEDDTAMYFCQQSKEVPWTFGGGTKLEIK
notes: Mouse hybridoma clone; isotype IgG2b, kappa; also called Clone 6 (TSPAN3-C - M6)
B4: Anti-TSPAN3 M1 clone monoclonal antibody (antibody, IgG1, V domains shown)
VH: QVQLQQPGAELVKPGASVKLSCKASGYTFTSYWMHWVKQRPGQGLEWIGMIHPNSGSPNYNERFKSKATLTVDKSSSTAYMQLSSLTSEDSAVYFCARWGDGYHRYFDVWGTGTTVTVSS
VL: DIQMTQSPASLSASVGETVTITCRASGNIHNYLAWYQQKQGKSPQLLVYNAKTLADGVPSRFSGSGSGTQYSLKINSLQPEDFGSYYCQHFWSTPPYTFGGGTKLEIK
notes: Mouse hybridoma clone (CD-1 library); isotype IgG1, kappa; also called Clone 1 (TSPAN3-C - M1)

Biological target: T1, human Tetraspanin-3 (TSPAN3) (human, UniProt O60637 1-253)
T1 construct: whole, on cells; also called human TSPAN3; cell surface expressed TSPAN3
T1 sequence (O60637 whole entry): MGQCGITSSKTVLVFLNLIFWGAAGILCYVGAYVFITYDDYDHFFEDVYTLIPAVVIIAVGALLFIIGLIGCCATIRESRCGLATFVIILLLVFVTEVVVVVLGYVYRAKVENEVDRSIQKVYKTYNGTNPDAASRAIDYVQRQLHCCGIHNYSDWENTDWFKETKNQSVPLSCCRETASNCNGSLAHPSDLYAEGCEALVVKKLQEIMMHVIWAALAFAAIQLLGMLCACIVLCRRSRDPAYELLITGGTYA
Test: flow cytometry (FACS) on TSPAN3-expressing cells
Source text: Using the hybridoma technology, i.e., fusing the antibody-producing B-cells harvested from the immunized mice with myeloma cells, two hybridoma fusion libraries were generated three days later (one from the reactive NZBW mouse and one from the two pooled reactive CD-1 mice), and then retested for reactivity to surface-expressed human TSPAN3.

| Binder | % Gated [%] | Median Fluorescence Intensity (MFI) |
| --- | --- | --- |
| B1 | 60.7 | 284 |
| B2 | 73 | 529 |
| B3 | 69.5 | 308 |
| B4 | 59 | 290 |
